Reference: patent US20110229463A1 (SYMPHOGEN A S, published 2011)

How the values were obtained:
[1] = biological target: T1, recombinant human EGFR extracellular domain with 6xHis (human, UniProt P00533 25-645); experiment: SPR (BIAcore 2000): IgG captured by anti-human Fc, soluble EGFR ECD injected
T1 construct: In-house protein; also called 6xHis EGFR ECD; soluble human EGFR ECD; not shown: 6xHis tag
Description: Kinetic analysis of the full length IgG antibodies of the invention was performed on a BIAcore 2000, employing an assay as described in (Canziani, Klakamp, et al. 2004, Anal. Biochem, 325:301-307) allowing measurement of monovalent affinities of whole IgG molecules against soluble antigen. […] The chip surface was regenerated in between cycles by stripping the captured antibody/antigen complexes with a 10 second injection of 100 mM H₃PO₄. […] The association rate constant (ka) and dissociation constant (kd) were evaluated globally from the generated sensograms with the BIA evaluation software 4.1 provided by the manufacturer.

[2] = biological target: T2, Wild type full length EGFR purified from A431 cells (human, UniProt P00533 25-1210); experiment: ELISA: antibody titrated on coated full length EGFR, then biotinylated EGF (blocked ligand), streptavidin-HRP
T2 construct: mature; purified from cells and coated on ELISA wells; also called purified full length EGFR; Sigma E3641
Description: The next morning wells were washed twice with PBS-T and blocked for one hour with 150 μl PBS-T-1% BSA at room temperature, followed by wash twice in PBS-T. Next 80 μl of serially diluted Anti-EGFR antibodies and control antibodies were added to wells and incubated 30 min at room temperature. […] Subsequently wells were washed five times with PBS-T, followed by incubation with 100 μl/well Streptavidin-HRP secondary reagent diluted 1:1000 in blocking buffer and incubation at room temperature for 30 min. Finally wells were washed five times with PBS-T and plates were developed by adding 100 μL/well TMB substrate and incubated for 60 min. After incubation the reaction was stopped by addition of 1 M H₂SO₄; 100 μl/well and plates were read at OD 450 nm.

[3] = biological target: T1, recombinant human EGFR extracellular …; experiment: SPR; EGFR ECD saturated with mix N=6: 1261+1347+992+1024+1030+1361
Description: SPR analysis was performed on a Biacore 3000 machine containing four flow cells. A CM5 Biacore chip was conjugated with 10,000 Resonance units (Ru) polyclonal anti-His antibody to flow cells 1-4 according to the manufacturer's instructions. […] Immediately after antigen injection the maximal binding of the Anti-EGFR mAb without competition was established in each flow cell during a reference run. Briefly 5 μl antibody at a concentration of 40 μg/ml was injected over all flow cells with captured EGFR followed by stripping of the antibody/antigen complex with a low pH acid wash (10 sec. contact time with 10 mM Glycine-HCl, pH2). After the determination of Anti-EGFR antibody maximal binding to each flow cell, a competition run was performed during the same Biacore cycle. Flow cells were first saturated with EGFR ECD antigen followed by injection of different reference antibodies or Anti-EGFR antibodies into separate flow cells using the same antigen saturating conditions as outlined above. This step was immediately followed by a second injection of Anti-EGFR antibody over the flow cell saturated with EGFR antigen and competition antibody to minimize the dissociation of either antigen or blocking antibody. Then the antibody/antigen complexes were stripped off with a low pH acid wash (10 sec. contact time with 10 mM Glycine-HCl, pH 2) and the whole cycle beginning with the reference run was repeated with a new Anti-EGFR antibody. The degree of inhibition of tested Anti-EGFR antibodies were determined by comparing the Ru max value of the individual Anti-EGFR antibody before and after competition by introduction of report points recorded two seconds before and after injection of each sample.

[4] = biological target: T3, EGFR-Fc (recombinant EGFR ECD-Fc chimera, R&D Systems 344-ER) (human, UniProt P00533 25-645); experiment: SPR (Biacore 2000): EGFR ECD-Fc immobilised on CM5, Fab injected
T3 construct: Bought; also called immobilized Human EGFR ECD; not shown: Human IgG Fc
Description: To investigate possible differences in antigen presentation between EGFR ECD presented in soluble and immobilized form, a new affinity measurement on an immobilized chimeric EGFR receptor antigen termed EGFR-Fc (R&D Systems, 344-ER), consisting of Human EGFR ECD fused to Human IgG Fc was performed.

[5] = biological target: T3, EGFR-Fc (recombinant EGFR ECD-Fc …); experiment: SPR, Fab on immobilised EGFR ECD-Fc against IgG with soluble EGFR ECD
[6] = biological target: T2, Wild type full length EGFR purified …; experiment: indirect ELISA, Fab on coated purified full length EGFR, anti-human Fab HRP
[7] = biological target: T4, human EGFR expressed on cells (human, UniProt P00533 25-1210); experiment: cell ELISA on A431-NS cells (Fab ED50) against SPR KD
T4 construct: whole, on cells; also called EGFR on A431-NS cells; full length Human EGFR on transfected CHO cells

Row | t1/2 [1] [min] | Inhibition Sample mAb [3] [%] | Binder | further results
1 | 74.1 | – | antibody 1260 (antibody, human IgG1, kappa, V domains shown, Chimeric mouse/human IgG1 kappa) VH: QVQLKESGPGLVAPSQSLSITCTVSGFSLTTYGVHWVRQPPGKGLEWLGVIWAGGSTNYNSALMSRLSIKKDNSKSQVFLKMNSLQTDDTAMYYCARAYGYNFDYWGQGTTLTVSS VL: DIQMTQTTSSLSASLGDRVTISCSASQGITNYLNWYQQKPDGTVKLLIYYSSSLHSGVPSRFSGSGSGTDYSLTISNLEPEDIATYYCQQYSEIPYTFGGGTKLELKR | IC50 (read off the curve) [2]: ~40 ng mAb/ml
2 | 4.1 | – | antibody 1320 (antibody, human IgG1, kappa, V domains shown, Chimeric mouse/human IgG1 kappa) VH: QVQLQQPGAELVKPGASMKLSCKASGYTFTNYWMHWVKQRPGQGLEWIGEINPSNGRTNYNEKFKSKATLTVDKSSSTAYMQLSSLTSEDSGVYYCAKGGNYYDYDWDYWGQGTTLTVSS VL: DIQMTQTTSSLSASLGDRVTISCSASQDISNYLNWYQQKPDGTVKLLIYHTSTLHSGVPSRFSGSGSGTDYSLTISNLEPEDIATYYCQQYSKLPWTFGGGTKLEIKR | IC50 (read off the curve) [2]: ~20 ng mAb/ml
3 | 11.3 | – | antibody 1254 (antibody, human IgG1, kappa, V domains shown, Chimeric mouse/human IgG1 kappa; also called mAb 1254) VH: EVQLVESGGGLVKPGGSLKLSCAASGFAYSTYDMSWVRQTPEKRLEWVAYISSGGDAAYYPDTVKGRFTISRDNAKNTLYLQMSSLKSEDTAMYYCARSRYGNYGDAMDYWGQGTSVTVSS VL: DVVMTQTPLSLPVSLGDQASISCRSSQSLVHSNGNTYLHWYLQKPGQSPKLLLYKVSNRFSGVPDRFSGSGSGTDFTLKISRVESEDLGVYFCSQNTHVYTFGGGTKLEIKR | –
4 | 2.4 | 113 | antibody 1024 (antibody, human IgG1, kappa, V domains shown, Chimeric mouse/human IgG1 kappa) VH: QVQLQQPGAELVEPGGSVKLSCKASGYTFTSHWMHWVKQRPGQGLEWIGEINPSSGRNNYNEKFKSKATLTVDKSSSTAYMQFSSLTSEDSAVYYCVRYYGYDEAMDYWGQGTSVTVSS VL: DIVMTQAAFSNPVTLGTSASISCRSSKSLLHSNGITYLYWYLQKPGQSPQLLIYQMSNLASGVPDRFSSSGSGTDFTLRISRVEAEDVGVYYCAQNLELPYTFGGGTKLEIKR | –
5 | – | – | Fab fragment of antibody 1024 (Fab, V domains shown, not shown: small tags and cut ends) VH: QVQLQQPGAELVEPGGSVKLSCKASGYTFTSHWMHWVKQRPGQGLEWIGEINPSSGRNNYNEKFKSKATLTVDKSSSTAYMQFSSLTSEDSAVYYCVRYYGYDEAMDYWGQGTSVTVS VL: DIVMTQAAFSNPVTLGTSASISCRSSKSLLHSNGITYLYWYLQKPGQSPQLLIYQMSNLASGVPDRFSSSGSGTDFTLRISRVEAEDVGVYYCAQNLELPYTFGGGTKLEIKR | t1/2 [4]: 2.3 min
6 | 31.1 | 87 | antibody 1030 (antibody, human IgG1, kappa, V domains shown, Chimeric mouse/human IgG1 kappa) VH: EVQLVESGGGLVKPGGSLKLSCAASGFTFSSYALSWVRQTPERRLEWVASISGVGSTYFPDSVKGRFTMSRDNARNILYLQMSSLRSEDTAMYYCARGSDGYFYAMDYWGQGTSVTVSS VL: DIVLTQSPASLAVSLGQRATISCRASKSVSTSGYSFMHWYQLKPGQPPKLLIYLASNLESGVPARFSGSGSGTDFTLNIHPVEEEDAATYYCQHSREFPLTFGGGTKLEIKR | –
7 | – | – | Fab fragment of antibody 1030 (Fab, V domains shown, not shown: small tags and cut ends) VH: EVQLVESGGGLVKPGGSLKLSCAASGFTFSSYALSWVRQTPERRLEWVASISGVGSTYFPDSVKGRFTMSRDNARNILYLQMSSLRSEDTAMYYCARGSDGYFYAMDYWGQGTSVTVS VL: DIVLTQSPASLAVSLGQRATISCRASKSVSTSGYSFMHWYQLKPGQPPKLLIYLASNLESGVPARFSGSGSGTDFTLNIHPVEEEDAATYYCQHSREFPLTFGGGTKLEIKR | t1/2 [4]: 57.5 min; fold higher affinity against immobilized antigen as compared to soluble receptor [5]: 10 fold; EC50 (read off the curve) [6]: ~5 nM
8 | 0.2 | 116 | antibody 992 (antibody, human IgG1, kappa, V domains shown, Chimeric mouse variable / human IgG1 kappa; the light chain entry includes the human kappa constant region; the end of the range is counted on the printed entry) VH: EVQLQQPGSELVRPGASVKLSCKASGYTFTSYWMHWVKQRPGQGLEWIGNIYPGSRSTNYDEKFKSKATLTVDTSSSTAYMQLSSLTSEDSAVYYCTRNGDYYVSSGDAMDYWGQGTSVTVSS VL: DIQMTQTTSSLSASLGDRVTISCRTSQDIGNYLNWYQQKPDGTVKLLIYYTSRLHSGVPSRFSGSGSGTDFSLTINNVEQEDVATYFCQHYNTVPPTFGGGTKLEIKR | –
9 | – | – | Fab fragment of antibody 992 (Fab, V domains shown, not shown: small tags and cut ends) VH: EVQLQQPGSELVRPGASVKLSCKASGYTFTSYWMHWVKQRPGQGLEWIGNIYPGSRSTNYDEKFKSKATLTVDTSSSTAYMQLSSLTSEDSAVYYCTRNGDYYVSSGDAMDYWGQGTSVTVS VL: DIQMTQTTSSLSASLGDRVTISCRTSQDIGNYLNWYQQKPDGTVKLLIYYTSRLHSGVPSRFSGSGSGTDFSLTINNVEQEDVATYFCQHYNTVPPTFGGGTKLEIKR | fold difference of the monovalent functional affinity on cells against the value tested with BIAcore [7]: 15 fold; t1/2 [4]: 0.2 min
10 | 78.1 | – | antibody 1284 (antibody, human IgG1, kappa, V domains shown, Chimeric mouse/human IgG1 kappa) VH: QVQLQQPGAELVKPGASVKLSCKASGYTFTSDWMHWMKQRPGQGLEWIGEINPSNGRSSYNEKFKSKATLTVDKSSSTAYMQLSSLTSEDSAVYYCARIGGIYVETYWGQGTLVTVSS VL: DIVLTQSPASLAVSLGQRATISCRASQSVSTSTYSYMHWYQQKSGQPPKLLIKYASNLESGVPARFSGSGSGTDFTLNIHPVEEEDTATYYCQHSWEIPWTFGGGTKLEIKR | –
11 | 22.9 | 80 | antibody 1347 (antibody, human IgG1, kappa, V domains shown, Chimeric mouse/human IgG1 kappa) VH: QVQLKESGPGLVAPSQSLSITCTVSGFSLTGHGVNWVRQPPGKGLEWLGMIWGDGSTDYNSTLKSRLSISKDNSKSQVFLKMNSLQTDDTARYYCARGYGYLYYFDYWGQGTTLTVSS VL: ENVLTQSPAIMSASPGEKVTMTCRASSSVSSSYLHWYQQKSGASPKLWIYSTSNLASGVPARFSGSGSGTSYSLTVNSVETEDAATYYCHQYSGFPFTFGSGTKLELKR | –
12 | 3.6 | 95 | antibody 1261 (antibody, human IgG1, kappa, V domains shown, Chimeric mouse/human IgG1 kappa) VH: EVQLVESGGGLVKPGGSLKLSCAVSGFTFSSYVMSWVRQTPEKRLEWVATITSGGRNIYYLDSVKGRFTISRDNAKNTLYLQMSSLRSEDTAMYYCARHEDYRYDGYYAMDYWGQGTSVTVSS VL: QIVLTQSPAIMSASPGEKVTITCSASSSVSYMHWFQQKPGTSPKLWIYSTSNLASGVPARFSGSGSGTSYSLTISRMEAEDAATYYCQQRSSYPYTFGGGTKLELKR | –
